B1: Flt1D2.VEGFR3D3.Fc?C1(a) (Fc fusion, not shown: a dimerising Fc or GST)
chain: GRPFVEMYSEIPEIIHMTEGRELVIPCRVTSPNITVTLKKFPLDTLIPDGKRIIWDSRKGFIISNATYKEIGLLTCEATVNGHLYKTNYLTHRQTNTIIDIQLLPRKSLELLVGEKLVLNCTVWAEFNSGVTFDWDYPGKQAERGKWVPERRSQQTHTELSSILTIHNVSQHDLGSYVCKANNGIQRFRESTEVIVHENGPG
B2: Flt1D2.Flk1D3.Fc?C1(a) (Fc fusion, human)
chain: GRPFVEMYSEIPEIIHMTEGRELVIPCRVTSPNITVTLKKFPLDTLIPDGKRIIWDSRKGFIISNATYKEIGLLTCEATVNGHLYKTNYLTHRQTNTIIDVVLSPSHGIELSVGEKLVLNCTARTELNVGIDFNWEYPSSKHQHKKLVNRDLKTQSGSEMKKFLSTLTIDGVTRSDQGLYTCAASSGLMTKKNSTFVRVHEKGPG
modifications: N-linked glycosylation: complete at Asn33, Asn193, Asn282; partial at Asn65 and Asn120 (peptide mapping numbering)
notes: domain: Ig domain 2;domain: Ig domain 3; Made in CHO cells, transiently or stably; also called R1R2; not shown: Fc?C1(a) portion
B3: Flt1(1-3)-Fc (Fc fusion, human, UniProt P17948 27-331, looked up, not shown: a dimerising Fc or GST)
chain: SKLKDPELSLKGTQHIMQAGQTLHLQCRGEAAHKWSLPEMVSKESERLSITKSACGRNGKQFCSTLTLNTAQANHTGFYSCKYLAVPTSKKKETESAIYIFISDTGRPFVEMYSEIPEIIHMTEGRELVIPCRVTSPNITVTLKKFPLDTLIPDGKRIIWDSRKGFIISNATYKEIGLLTCEATVNGHLYKTNYLTHRQTNTIIDVQISTPRPVKLLRGHTLVLNCTATTPLNTRVQMTWSYPDEKNKRASVRRRIDQSNSHANIFYSVLTIDKMQNKDKGLYTCRVRSGPSFKSVNTSVHIYDK

What was measured:
human VEGF165 [1] = biological target: T1, human VEGF165 (human, UniProt P15692-4 27-191); experiment: cell-based or functional assay
T1 sequence (P15692 other isoform, or with tags, fused parts or gaps limits assumed): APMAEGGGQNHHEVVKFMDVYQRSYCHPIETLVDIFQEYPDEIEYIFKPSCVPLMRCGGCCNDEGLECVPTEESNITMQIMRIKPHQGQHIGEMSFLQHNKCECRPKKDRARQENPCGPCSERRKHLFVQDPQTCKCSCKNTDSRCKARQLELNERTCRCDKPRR

human VEGF165 [2] = biological target: T1, human VEGF165; experiment: size exclusion chromatography with on-line light scattering
Method: (a) Size Exclusion Chromatography (SEC) with On-Line Light Scattering. Size exclusion chromatography column with a MiniDawn on-line light scattering detector (Wyatt Technology, Santa Barbara, Calif.) and refractive index (R1) detectors (Shimadzu, Kyoto, Japan) was used to determine the molecular weight (MW) of the receptor-ligand complex. Samples were injected onto a Superose 12 HR 10/30 column (Pharmacia) equilibrated in PBS buffer and eluted with the same buffer at flow rate 0.5 ml/min. at room temperature. […] MW was calculated from LS and R1 signals. The same procedure was used to determine MW of the individual components of the receptor-ligand complex.

human VEGF165 [3] = biological target: T1, human VEGF165; experiment: size exclusion chromatography (Superose 6), complex purified, dissociated in 6M guanidine hydrochloride, components quantified
Method: (b) Size Exclusion Chromatography. […] The receptor-ligand complex was then incubated in a buffer containing 6M guanidine hydrochloride in order to dissociate it into its component proteins.

human VEGF165 [4] = biological target: T1, human VEGF165; experiment: size exclusion chromatography under dissociative conditions (6M GuHCl), standard curves
Method: (a) Size Exclusion Chromatography (SEC) under native conditions. […] The sample was eluted with the same buffer at flow rate 40 μl/min. at room temperature. […] Fractions eluted between 1.1 and 1.2 ml were combined and guanidinium hydrochloride (GuHCl) was added to a final concentration 4.5M to dissociate the complex.
(b) Size Exclusion Chromatography (SEC) under dissociative conditions. To separate the components of the receptor-ligand complex and to determine their molar ratio, 50 μl of dissociated complex as described supra was loaded onto a Superose 12 PC 3.2/30 equilibrated in 6M GuHCl and eluted with the same solution at a flow rate 40 μl/min. at room temperature.
The stoichiometry of the receptor-ligand complex was determined from the peak area or the peak height of the components. […] To obtain a standard curve, four different concentrations (0.04 mg/ml−0.3 mg/ml) of either component were injected onto a Pharmacia Superose 12 PC 3.2/30 column equilibrated in 6M guanidinium chloride and eluted with the same solution at flow rate 40 μl/min. at room temperature. The standard curve was obtained by plotting peak area or peak height vs protein concentration.

Binder | half maximal dose, VEGF165-induced cell proliferation (MG87 cells, MTS) (human VEGF165 [1]) [nM] | stoichiometry of the complex (human VEGF165 [2]) | ratio of VEGF165 to receptor in the complex (human VEGF165 [3]) | molar ratio of VEGF165:receptor (from the peak area) (human VEGF165 [4]) [mol/mol] | molar ratio of VEGF165:receptor (from the peak height) (human VEGF165 [4]) [mol/mol]
B1 | 2 |  |  |  | 
B2 | 0.8 | 1 receptor:VEGF165 | 1 VEGF165:receptor | 1.16 | 1.1
B3 | 2 |  |  |  | 

Reference: US20040266686A1 (Regeneron, published 2004)
